The target of test [1] is cytochrome c oxidase (complex IV) (rat (endogenous in rat liver mitoplasts)). To be noted: for Amax of the cytochrome c oxidase reaction, rat liver mitoplasts without cytochrome c: scale: μg atom of the oxygen/min per 1 mg of the protein.
For test [2], the target named is ubiquinol–cytochrome c reductase (complex III) (rat (endogenous in rat liver mitoplasts)). To be noted: for Amax of the succinate:cytochrome c reductase reaction, rat liver mitoplasts without cytochrome c: scale: μmol of the cyt c /min × mg of the protein.

With “horse cytochrome c T78N/K79Y/M80I/I81M/F82N (from UniProt P00004 1-105) (natural protein)”, in test [1], the Amax(mut)/Amax(wt) of the cytochrome c oxidase reaction was determined as 38.6%; the Km of the cytochrome c oxidase reaction, rat liver mitoplasts without cytochrome c was 4.96 μM of cyt c; the Amax of the cytochrome c oxidase reaction, rat liver mitoplasts without cytochrome c came to 0.283. Besides, in test [2], the Amax(mut)/Amax(wt) of the succinate:cytochrome c reductase reaction amounted to 6.5%; the Km of the succinate:cytochrome c reductase reaction, rat liver mitoplasts without cytochrome c is 11 μM of cyt c; the Amax of the succinate:cytochrome c reductase reaction, rat liver mitoplasts without cytochrome c is 0.008.

As for “horse cytochrome c T78S/K79P (from UniProt P00004 1-105) (natural protein)”, in test [1], the Amax(mut)/Amax(wt) of the cytochrome c oxidase reaction was determined as 47.5%; the Km of the cytochrome c oxidase reaction, rat liver mitoplasts without cytochrome c was 5.04 μM of cyt c; the Amax of the cytochrome c oxidase reaction, rat liver mitoplasts without cytochrome c turned out to be 0.348. Further, in test [2], the Amax(mut)/Amax(wt) of the succinate:cytochrome c reductase reaction amounted to 3.2%; the Km of the succinate:cytochrome c reductase reaction, rat liver mitoplasts without cytochrome c was 17.4 μM of cyt c; the Amax of the succinate:cytochrome c reductase reaction, rat liver mitoplasts without cytochrome c came out at 0.004.

“horse cytochrome c I81Y/A83Y/G84N (from UniProt P00004 1-105) (natural protein)”: in test [1], the Amax(mut)/Amax(wt) of the cytochrome c oxidase reaction turned out to be 23.6%; the Km of the cytochrome c oxidase reaction, rat liver mitoplasts without cytochrome c was 5 μM of cyt c; the Amax of the cytochrome c oxidase reaction, rat liver mitoplasts without cytochrome c stood at 0.173. In test [2], the Amax(mut)/Amax(wt) of the succinate:cytochrome c reductase reaction was 13%; the Km of the succinate:cytochrome c reductase reaction, rat liver mitoplasts without cytochrome c is 24.7 μM of cyt c; the Amax of the succinate:cytochrome c reductase reaction, rat liver mitoplasts without cytochrome c turned out to be 0.016.

With “horse cytochrome c T78A/K79A/I81A/F82T (from UniProt P00004 1-105) (natural protein)”, in test [1], the Amax(mut)/Amax(wt) of the cytochrome c oxidase reaction is 61.8%; the Km of the cytochrome c oxidase reaction, rat liver mitoplasts without cytochrome c was 5.31 μM of cyt c; the Amax of the cytochrome c oxidase reaction, rat liver mitoplasts without cytochrome c is 0.453. Moreover, in test [2], the Amax(mut)/Amax(wt) of the succinate:cytochrome c reductase reaction was determined as 3.2%; the Km of the succinate:cytochrome c reductase reaction, rat liver mitoplasts without cytochrome c was 8.94 μM of cyt c; the Amax of the succinate:cytochrome c reductase reaction, rat liver mitoplasts without cytochrome c is 0.004.

Take “horse cytochrome c I75G/G77R/T78I (from UniProt P00004 1-105) (natural protein)”: in test [1], the Amax(mut)/Amax(wt) of the cytochrome c oxidase reaction stood at 86.7%; the Km of the cytochrome c oxidase reaction, rat liver mitoplasts without cytochrome c was 6.47 μM of cyt c; the Amax of the cytochrome c oxidase reaction, rat liver mitoplasts without cytochrome c was found to be 0.636. Further, in test [2], the Amax(mut)/Amax(wt) of the succinate:cytochrome c reductase reaction came to 19.5%; the Km of the succinate:cytochrome c reductase reaction, rat liver mitoplasts without cytochrome c is 20.7 μM of cyt c; the Amax of the succinate:cytochrome c reductase reaction, rat liver mitoplasts without cytochrome c was 0.024.

Take “wild-type horse cytochrome c (from UniProt P00004 1-105) (natural protein)”: in test [1], the Km of the cytochrome c oxidase reaction, rat liver mitoplasts without cytochrome c was 5.4 μM of cyt c and the Amax of the cytochrome c oxidase reaction, rat liver mitoplasts without cytochrome c came to 0.733. Also, in test [2], the Km of the succinate:cytochrome c reductase reaction, rat liver mitoplasts without cytochrome c is 20.9 μM of cyt c and the Amax of the succinate:cytochrome c reductase reaction, rat liver mitoplasts without cytochrome c was determined as 0.123.

“horse cytochrome c T78A/K79A/I81A/F82T/T89A (from UniProt P00004 1-105) (natural protein)”: in test [1], the Amax(mut)/Amax(wt) of the cytochrome c oxidase reaction stood at 92.3%; the Km of the cytochrome c oxidase reaction, rat liver mitoplasts without cytochrome c is 5.31 μM of cyt c; the Amax of the cytochrome c oxidase reaction, rat liver mitoplasts without cytochrome c is 0.677. Moreover, in test [2], the Amax(mut)/Amax(wt) of the succinate:cytochrome c reductase reaction came out at 2.4%; the Km of the succinate:cytochrome c reductase reaction, rat liver mitoplasts without cytochrome c is 5.08 μM of cyt c; the Amax of the succinate:cytochrome c reductase reaction, rat liver mitoplasts without cytochrome c was found to be 0.003.

“horse cytochrome c K79V/I81L/F82R (from UniProt P00004 1-105) (natural protein)”: in test [1], the Amax(mut)/Amax(wt) of the cytochrome c oxidase reaction came to 97.8%; the Km of the cytochrome c oxidase reaction, rat liver mitoplasts without cytochrome c is 6.19 μM of cyt c; the Amax of the cytochrome c oxidase reaction, rat liver mitoplasts without cytochrome c is 0.717. Moreover, in test [2], the Amax(mut)/Amax(wt) of the succinate:cytochrome c reductase reaction was 8.1%; the Km of the succinate:cytochrome c reductase reaction, rat liver mitoplasts without cytochrome c was 1.24 μM of cyt c; the Amax of the succinate:cytochrome c reductase reaction, rat liver mitoplasts without cytochrome c was 0.01.

As to “horse cytochrome c I81L/F82S/A83S/G84A (from UniProt P00004 1-105) (natural protein)”, in test [1], the Amax(mut)/Amax(wt) of the cytochrome c oxidase reaction came to 92.1%; the Km of the cytochrome c oxidase reaction, rat liver mitoplasts without cytochrome c was 5.77 μM of cyt c; the Amax of the cytochrome c oxidase reaction, rat liver mitoplasts without cytochrome c amounted to 0.675. Moreover, in test [2], the Amax(mut)/Amax(wt) of the succinate:cytochrome c reductase reaction was 44.7%; the Km of the succinate:cytochrome c reductase reaction, rat liver mitoplasts without cytochrome c was 20.7 μM of cyt c; the Amax of the succinate:cytochrome c reductase reaction, rat liver mitoplasts without cytochrome c came out at 0.055.

(Values after PMC5451065.)
